The source of these data is patent US20130171163.

The target of data set [1] is insulin-like growth-factor-1 receptor beta subunit (IGF-1Rβ) (UniProt P08069).
The target of a further data set is VEGFR2 (UniProt P35968).
Sequence of VEGFR2 (P35968 20-1356): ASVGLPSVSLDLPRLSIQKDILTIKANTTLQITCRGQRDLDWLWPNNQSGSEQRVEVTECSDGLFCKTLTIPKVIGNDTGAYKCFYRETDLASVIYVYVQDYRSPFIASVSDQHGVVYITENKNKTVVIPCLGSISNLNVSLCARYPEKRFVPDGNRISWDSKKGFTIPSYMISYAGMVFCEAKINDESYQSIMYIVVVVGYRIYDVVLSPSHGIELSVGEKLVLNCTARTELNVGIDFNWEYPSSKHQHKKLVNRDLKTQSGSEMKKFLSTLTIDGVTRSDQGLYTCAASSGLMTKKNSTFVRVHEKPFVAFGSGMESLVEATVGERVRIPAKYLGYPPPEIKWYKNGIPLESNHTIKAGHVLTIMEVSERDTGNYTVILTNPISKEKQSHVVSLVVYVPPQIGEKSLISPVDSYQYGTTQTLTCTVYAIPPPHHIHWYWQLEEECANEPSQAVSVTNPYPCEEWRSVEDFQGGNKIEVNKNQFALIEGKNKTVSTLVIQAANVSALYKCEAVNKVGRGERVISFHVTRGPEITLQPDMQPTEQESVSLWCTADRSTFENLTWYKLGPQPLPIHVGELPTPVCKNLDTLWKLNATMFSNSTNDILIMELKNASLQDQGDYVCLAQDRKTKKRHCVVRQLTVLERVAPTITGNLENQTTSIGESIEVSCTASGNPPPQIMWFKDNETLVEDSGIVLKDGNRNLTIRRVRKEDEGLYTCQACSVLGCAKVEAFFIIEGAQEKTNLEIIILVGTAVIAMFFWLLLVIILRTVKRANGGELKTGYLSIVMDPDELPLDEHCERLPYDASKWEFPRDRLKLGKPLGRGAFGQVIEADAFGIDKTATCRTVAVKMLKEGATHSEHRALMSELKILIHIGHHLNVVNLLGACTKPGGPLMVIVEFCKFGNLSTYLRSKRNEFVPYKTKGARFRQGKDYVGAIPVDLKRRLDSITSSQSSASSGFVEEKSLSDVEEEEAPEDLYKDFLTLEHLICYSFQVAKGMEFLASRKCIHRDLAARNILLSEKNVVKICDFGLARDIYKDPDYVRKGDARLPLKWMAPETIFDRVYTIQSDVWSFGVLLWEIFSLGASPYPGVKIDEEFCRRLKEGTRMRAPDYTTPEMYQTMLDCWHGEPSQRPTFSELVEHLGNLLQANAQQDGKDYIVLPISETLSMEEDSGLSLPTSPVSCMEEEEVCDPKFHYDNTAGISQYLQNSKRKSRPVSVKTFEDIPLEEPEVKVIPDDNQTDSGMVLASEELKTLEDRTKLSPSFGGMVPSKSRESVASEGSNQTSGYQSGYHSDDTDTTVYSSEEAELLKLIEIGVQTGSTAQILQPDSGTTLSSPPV

Sequence of insulin-like growth-factor-1 receptor beta subunit (IGF-1Rβ) (P08069 whole entry, looked up, tested part not stated): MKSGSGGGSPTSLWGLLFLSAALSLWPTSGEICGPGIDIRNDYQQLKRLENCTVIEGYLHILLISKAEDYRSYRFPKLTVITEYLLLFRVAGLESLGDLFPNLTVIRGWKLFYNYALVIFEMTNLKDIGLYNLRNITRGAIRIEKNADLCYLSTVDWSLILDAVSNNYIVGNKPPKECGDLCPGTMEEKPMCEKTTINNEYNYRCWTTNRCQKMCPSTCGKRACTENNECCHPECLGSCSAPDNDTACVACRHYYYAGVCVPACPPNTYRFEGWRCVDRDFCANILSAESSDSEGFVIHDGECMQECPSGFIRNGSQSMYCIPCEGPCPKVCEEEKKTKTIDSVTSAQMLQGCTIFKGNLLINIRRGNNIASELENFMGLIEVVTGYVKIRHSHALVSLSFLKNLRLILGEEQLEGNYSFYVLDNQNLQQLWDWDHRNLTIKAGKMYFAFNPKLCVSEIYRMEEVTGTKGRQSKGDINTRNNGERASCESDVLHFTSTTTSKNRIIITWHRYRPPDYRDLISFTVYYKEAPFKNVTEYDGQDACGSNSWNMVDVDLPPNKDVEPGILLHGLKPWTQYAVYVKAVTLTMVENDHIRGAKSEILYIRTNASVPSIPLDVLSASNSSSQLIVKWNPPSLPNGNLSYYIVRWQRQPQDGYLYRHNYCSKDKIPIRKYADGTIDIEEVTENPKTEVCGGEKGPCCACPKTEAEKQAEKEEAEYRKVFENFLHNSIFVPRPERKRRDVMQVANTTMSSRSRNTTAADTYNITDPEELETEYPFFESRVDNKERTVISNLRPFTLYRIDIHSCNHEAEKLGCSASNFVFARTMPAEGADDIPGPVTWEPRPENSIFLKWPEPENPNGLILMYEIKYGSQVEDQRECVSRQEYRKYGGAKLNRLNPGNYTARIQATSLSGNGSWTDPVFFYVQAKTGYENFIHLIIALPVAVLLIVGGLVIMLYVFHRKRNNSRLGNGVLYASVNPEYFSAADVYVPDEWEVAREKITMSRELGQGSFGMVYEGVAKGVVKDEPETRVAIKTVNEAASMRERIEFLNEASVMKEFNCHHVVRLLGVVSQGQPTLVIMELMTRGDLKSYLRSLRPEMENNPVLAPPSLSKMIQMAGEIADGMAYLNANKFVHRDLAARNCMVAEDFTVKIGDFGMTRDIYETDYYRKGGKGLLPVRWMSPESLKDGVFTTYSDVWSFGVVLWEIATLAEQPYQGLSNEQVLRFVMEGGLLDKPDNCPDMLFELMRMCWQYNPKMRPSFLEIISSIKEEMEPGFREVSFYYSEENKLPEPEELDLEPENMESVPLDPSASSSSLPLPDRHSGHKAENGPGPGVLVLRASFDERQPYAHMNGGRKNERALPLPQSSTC

“leukocyte antigen-related protein tyrosine phosphatase (LAR)”: in data set [1], the “IGF-1-induced tyrosine phosphorylation of IGF-1Rβ in HUVECs overexpressing LAR (AdLAR); IP with anti-IGF-1Rβ, Western blot with anti-phosphotyrosine” value was “LAR overexpression inhibited IGF-1-induced tyrosine phosphorylation of IGF-1Rβ in a dose-dependent manner, with maximum inhibition at 2.5 MOI” and the “IGF-1Rβ autophosphorylation in IGF-1-treated HUVECs after LAR knockdown with siRNA” value is listed as “knockdown of endogenous LAR with LAR-specific siRNA (FIGS. 3A-3B) significantly increased IGF-1Rβ activity, without an apparent effect on IGF-1Rβ expression levels, in HUVEC treated with IGF-1”. Also, the “VEGF-induced tyrosine phosphorylation of VEGFR2 in HUVECs overexpressing LAR (AdLAR)” value in the data set with VEGFR2 is listed as “overexpression of LAR had no effect on VEGF-induced tyrosine phosphorylation of VEGFR2 in HUVECs”.
